Test results taken from patent US12391751B2, “Antibody against advanced glycation end products and use thereof” (Bloom Technology Corporation, priority 2018, dated 2025).

B1: PB-1: mouse monoclonal antibody raised against A-peak-BSA; heavy-chain variable region SEQ ID NO 18, light-chain variable region SEQ ID NO 22 (antibody, listed as Mus musculus, V domains shown)
VH: EVRLQQSGPELVKPGTSVKISCKASGYSFTGYYMHWVKQSPVKSLEWIGRIIPYNGATSYNQNFKDKASLTVDKSSRTAYMDLHSLTSEDSAVYYCARSRYYGRAPYYFDYWGQGTTLTVSS
VL: DVVVTQTPLSLPVSLGDQASISCRSSQSIVHSNGNTYLEWYLQKPGQSPKLLIYKVSNRFSGVPDRISGSGSGTDFTLKISRVEAGDLGVYSCFQGSHVPFTFGSGTKLEIK
B2: SJ-5: mouse monoclonal antibody raised against GAL13-MSA; heavy-chain variable region SEQ ID NO 4, light-chain variable region SEQ ID NO 8 (antibody, listed as Mus musculus, V domains shown)
VH: EVMLVESGGRLVKPGGSLKLSCAASGFTFSSYGMSWVRQTPEKRLEWVATISGGGSYTYYPDSVKGRFTISRDNVKNNLYLQMSSLRSEDTALYYCARRGAYGDYGWFAYWGQGTLVTVSA
VL: DIVLTQSPATLSVTPGDSVSLSCRASQSINNNLHWYQQKSHESPRLLIKCASQSISGIPSRFSGSGSGTDFTLSINSVETEDFGMYFCQQSNSWPLTFGAGTKLELK

Key:
[1] = Reactivity of PB-1 with known AGEs by competitive ELISA (Example 31); assay type: binding; conditions: immobilized A-peak-BSA
Method: Competitive ELISA was conducted using the reagents described in Example 13. A solution of A-peak-BSA prepared into 1 μg/mL in a coating solution was added at 100 μL/well to a 96-well microtiter plate (Costar) and incubated overnight at 4° C.
Each well after the immobilization treatment was washed three times with a washing solution (300 μL), and a blocking solution (200 μL) was added thereto and left at room temperature for 1 hour.
GAL691 (prepared in Example 16), GLAP (prepared in Example 12), Lys-hydroxy-triosidine (prepared in Example 17), GA-pyridine (prepared in Example 28), GOLD (prepared in Example 29), and Z-Lys were each dissolved in a phosphate buffer solution (0.2 M, pH 7.4) to prepare a 100 mM solution. Then, a 10 mM solution was prepared by dilution 10-fold with a diluting solution containing BSA (1 mg/mL, FUJIFILM Wako Pure Chemical Corp.). Sample solutions of 4-fold dilution series of 0.04, 0.16, 0.63, and 2.5 mM were further prepared with a diluting solution containing a 10% (v/v) phosphate buffer solution and 1 mg/mL BSA. Ten-fold dilutions of a phosphate buffer solution with a diluting solution containing 1 mg/mL BSA were prepared as blank solutions containing no sample in the same way as above. A 0.1 μg/mL solution of the PB-1 antibody was prepared with a diluting solution containing 1 mg/mL BSA.
Each well treated with the blocking solution was washed three times with a washing solution (300 μL), and the sample solutions of 4-fold dilution series (50 μL each) and the PB-1 antibody dilution solution (50 μL) were added thereto, stirred with a plate mixer for 2 minutes, and then incubated at room temperature for 1 hour.
After the competitive reaction, each well was washed three times with a washing solution (300 μL), and peroxidase-labeled anti-mouse IgG (H+L) polyclonal antibody, F(ab′)2 fragment (Kirkegaard & Perry Laboratories, Inc.) diluted into 0.05 μg/mL with a diluting solution containing 1 mg/mL BSA was added at 100 μL/well and left standing at room temperature for 1 hour.
After washing three times with a washing solution (300 μL), a substrate solution (ELISA POD substrate TMB kit (Popular), Nacalai Tesque, Inc.) was added at 100 μL/well and incubated at room temperature for 10 minutes under light shielding. Then, color development was terminated by the addition of 2 N sulfuric acid (50 μL).
Absorbance was measured at a dominant wavelength of 450 nm and a sub-wavelength of 650 nm with a microplate reader (Cytation 5, BioTek Instrument Inc.), and the absorbance at the sub-wavelength was subtracted from the absorbance at the dominant wavelength. Change in the absorbance of GAL691, GLAP, Lys-hydroxy-triosidine, GA-pyridine, GOLD, and Z-Lys was indicated as relative values to the absorbance of the blank solution.

HUVEC = assay: Neutralization test of vascular endothelial cell lumen formation inhibition using PB-1 (Example 35); assay type: cell-based, human; conditions: PB-1 pre-reacted with Glycer-AGEs-BSA; HUVEC, 8 hours
Method: Matrigel matrix was prepared by the same operation as in Example 14.
10 μL of Glycer-AGEs-BSA (10 mg/mL) prepared in Example 1, 10 μL of phosphate-buffered saline (PBS, FUJIFILM Wako Pure Chemical Corp.), and 90 μL of the PB-1 antibody (10 mg/mL) or a control antibody (10 mg/mL) were added to a 1.5 mL tube (Watson) and left standing at room temperature for 10 minutes. Then, a supernatant was recovered by centrifugation at 14000 rpm for 15 minutes using a centrifuge (Thermo Fisher Scientific Inc.).
(3) A lumen formation inhibition test was conducted by the same operation as in Example 14. As shown in the drawing, HUVEC was confirmed to form a lumen in the Matrigel matrix in the control BSA addition group. […] Furthermore, this inhibition of lumen formation was neutralized by the reaction solution of PB-1.

Fru-AGEs-BSA = Fru-AGEs-BSA (Bos taurus, UniProt P02769); assay: Specificity of SJ-5 by competitive ELISA (Example 7); assay type: binding; conditions: GAL13-BSA or Glycer-AGEs-BSA immobilized, POD-labeled SJ-5 0.4 μg/mL
Sequence of Fru-AGEs-BSA (P02769 25-607): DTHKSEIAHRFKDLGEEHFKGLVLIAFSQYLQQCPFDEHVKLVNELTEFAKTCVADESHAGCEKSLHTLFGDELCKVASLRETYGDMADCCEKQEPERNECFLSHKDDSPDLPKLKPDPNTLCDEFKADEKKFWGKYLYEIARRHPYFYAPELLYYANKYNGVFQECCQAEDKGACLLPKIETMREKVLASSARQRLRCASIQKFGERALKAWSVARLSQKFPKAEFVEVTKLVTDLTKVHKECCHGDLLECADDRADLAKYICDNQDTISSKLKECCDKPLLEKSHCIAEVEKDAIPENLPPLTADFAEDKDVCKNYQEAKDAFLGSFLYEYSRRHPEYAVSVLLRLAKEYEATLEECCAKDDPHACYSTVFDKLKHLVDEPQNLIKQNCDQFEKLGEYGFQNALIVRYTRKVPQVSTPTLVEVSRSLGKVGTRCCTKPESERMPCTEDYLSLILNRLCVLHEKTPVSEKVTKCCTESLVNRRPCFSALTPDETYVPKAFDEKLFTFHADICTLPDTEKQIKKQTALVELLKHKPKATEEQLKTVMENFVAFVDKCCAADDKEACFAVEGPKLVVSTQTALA

specificity: reactivity with Fru-AGEs-BSA (Fru-AGEs-BSA) | Molecule | recognition of GA-pyridine [1] | recognition of GLAP [1] | recognition of GOLD [1] | recognition of Lys-hydroxy-triosidine [1] | neutralization of lumen formation inhibition by Glycer-AGEs-BSA (HUVEC)
– | B1 | does not recognize | does not recognize | does not recognize | does not recognize | neutralized
negative | B2 | – | – | – | – | –
